# Assay: soluble on expression in E. coli; label from the status in PepcDB or PDB records
row,Sequence,soluble on expression in E. coli
1,SPLLLYTCLLWLPTSGLWTVQAMDPNAAYVNMSNHHRGLASANVDFAFSLYKHLVALSPKKNIFISPVSISMALAMLSLGTCGHTRAQLLQGLGFNLTERSETEIHQGFQHLHQLFAKSDTSLEMTMGNALFLDGSLELLESFSADIKHYYESEVLAMNFQDWATASRQINSYVKNKTQGKIVDLFSGLDSPAILVLVNYIFFKGTWTQPFDLASTREENFYVDETTVVKVPMMLQSSTISYLHDAELPCQLVQMNYVGNGTVFFILPDKGKMNTVIAALSRDTINRWSAGLTSSQVDLYIPKVTISGVYDLGDVLEEMGIADLFTNQANFSRITQDAQLKSSKVVHKAVLQLNEEGVDTAGSTGVTLNLTSKPIILRFNQPFIIMIFDHFTWSSLFLARVMNPV,soluble
2,SQACVMPSLLQNMVGFSEVARATQTDPRPQRPAPPQPQVATMPWSQPGSWARRGFVPAWSQPPALSQQKLARQCCLGPWAGLIPHQQPLPRHPPQASSFPTTAGLWPPAFAQCGTLGHRAIYLVLWPPFLGPWLSSLQEKPHFIPQLPPACTPHPVPWWGLSIPGSKGRRSAPFLPLSLGRLGAQLWKHHPATHLSCGSRFFGGS,soluble
3,SRDEIATTVFFVTRLVKKHDKLSKQQIEDFAEKLMTILFETYRSHWHSDCPSKGQAFRCIRINNNQNKDPILERACVESNVDFSHLGLPKEMTIWVDPFEVCCRYGEKNHPFTVASFKGRWEEWELYQQISYAVSRASSDVSSGTSCDEESCSKEPRVIPKVSNPKSIYQVKSVPVLFYTFFLSNSKKNALIMKTKKQKNMERTKL,soluble
4,SREEFEQILQERNELKAKVFLLKEELAYFQRELLTDHRVPSLLLEAMKVAVRKQRKKIKAKMLGT,soluble
5,SRLDIIRAEMDVVPSPGLPEKVNEKSKNIPLPEGINLLSSKEIIDLIQTHRHQLELYVTKFNPLTDFAGKIHAFRDQFKQLEENFEDLHEQKDKVQALLENARILESKYVASWQDYHSEFSKKYGDIALKKKLEQNTKKLDEESSQLETTTRSIDSADDLDQFIKNYLDIRTQYHLRREKLATWDKQGNLKY,soluble
6,SRLLKTDLLEDVFNVENESFMQETELKENEYSVNLRTRFWFRGRAYDGWINLVNPFRATMVLGTPGSGKSYAIINQYIKQTIEKGYSLFLYDFKYPDLSEIAYNHLLAHLDGYKVKPKFYVINFDNPRESHRCNPIHPDFMTDISDAYESAYTIMLNLNRTWISKQGDFFVESPIILLASIIWYLKIYKNGKYCTFPHAIEFLNRKYADIFPILTSYPELENYLSPFMDAWESSAVEQLQGQIASAKIPLSRMISPALYWVMTADDFTLDINNPEEPKVLVVGNNPDRQGIYGAALGLYNSRIVKLINKKKRLKSAVIIDELPTIYMRGLDNLIATARSNKVAVMLGFQDFSQLKRDYGDKESAVICNTVGNVFAGQVVAETAKTLSERFGKVLQKRQNMTINRNETSVSINTQMDSLIPASKISNLTQGMFVGAVADNFDERIEQKIFHAEIVVDNEQVRRETARYVKIPQIIDFTDKDGNDTMQQQIDANYYRIKSEVRQIVADEIGRIKADPELSHLIKDK,not soluble
7,SRTVALGIVAMACLVAIAHGGNFFQDAEVSWGQGRGKIVDGGRGLDLTLDRSSGSGFQSKSEYLFGKIDMQIKLVPGGWWNQELSDMSYRRMRWVQRKFMIYNYCTDAKRFPQGTPAECKLR,soluble
8,SSDSFDRAPEQTKPQRAPPSSQDKIPQQNSESAMAKPQVVVAPVLMSKLSANAPEFYPSGYSSNYTESYEDGCEDYPTLSEYVQDFLNHLTEQPGSFETEIEQFAETLNGWVTTDDALQELVELIYQQATSIPNFSYMGARLCNYLSHHLTISPQSGNFRQLLLQRCRTEYEAKDQAAKGDEVTRKRFHAFVLFLGELYLNLEIKGTNGQVTRADILQVGLRELLNALFSNPMDDNLICAVKLLKLTGSVLEDTWKEKGKTDMEEIIQRIENVVLDANCSRDVKQMLLKLVELRSSNWGRVHATSTYREATPENDPNYFMNEPTFYTSDGVPFTAADPDYQEKYQELLEREDFFPDYEENGTDLSGAGDPYLDDIDDEMDPEIEEAYEKFCLESERKRKQ,not soluble
9,SSDVTFLVEGRPFYAHKVLLFTASPRFKALLSSKPTNDNTCIEIGYVKYPIFQLVMQYLYYGGPESLLIKNNEIMELLSAAKFFQLEALQRHCEIICAKSINTDNCVDIYSHAKFLGVTELSAYCEGYFLKNMMVLIENEAFKQLLYDKNGEGAGQDVLQDLQRTLAIRIQSIHLSSSKGSVV,soluble

# Reference: the DeepSol protein solubility set
